Where two headings read alike, the source gives them in different places.

What is called koff is a measure of how fast the partners let go of each other. The low end stands for slow dissociation, the high end for fast dissociation.

Holding throughout (assay): pull-down
Assay [1] addresses Doc1-4A APC/C (S. cerevisiae) (UniProt P53886).
The target of assay [2] is Cdc27-A2 APC/C (APC/C with Cdc27 L579A) (S. cerevisiae) (UniProt P53886).
Assay [3] concerns the target Doc1-4A APC/C (S. cerevisiae) (UniProt P53886). The source holds these as a separate data set.

Doc1-4A APC/C (S. cerevisiae), sequence (P53886 whole entry, looked up): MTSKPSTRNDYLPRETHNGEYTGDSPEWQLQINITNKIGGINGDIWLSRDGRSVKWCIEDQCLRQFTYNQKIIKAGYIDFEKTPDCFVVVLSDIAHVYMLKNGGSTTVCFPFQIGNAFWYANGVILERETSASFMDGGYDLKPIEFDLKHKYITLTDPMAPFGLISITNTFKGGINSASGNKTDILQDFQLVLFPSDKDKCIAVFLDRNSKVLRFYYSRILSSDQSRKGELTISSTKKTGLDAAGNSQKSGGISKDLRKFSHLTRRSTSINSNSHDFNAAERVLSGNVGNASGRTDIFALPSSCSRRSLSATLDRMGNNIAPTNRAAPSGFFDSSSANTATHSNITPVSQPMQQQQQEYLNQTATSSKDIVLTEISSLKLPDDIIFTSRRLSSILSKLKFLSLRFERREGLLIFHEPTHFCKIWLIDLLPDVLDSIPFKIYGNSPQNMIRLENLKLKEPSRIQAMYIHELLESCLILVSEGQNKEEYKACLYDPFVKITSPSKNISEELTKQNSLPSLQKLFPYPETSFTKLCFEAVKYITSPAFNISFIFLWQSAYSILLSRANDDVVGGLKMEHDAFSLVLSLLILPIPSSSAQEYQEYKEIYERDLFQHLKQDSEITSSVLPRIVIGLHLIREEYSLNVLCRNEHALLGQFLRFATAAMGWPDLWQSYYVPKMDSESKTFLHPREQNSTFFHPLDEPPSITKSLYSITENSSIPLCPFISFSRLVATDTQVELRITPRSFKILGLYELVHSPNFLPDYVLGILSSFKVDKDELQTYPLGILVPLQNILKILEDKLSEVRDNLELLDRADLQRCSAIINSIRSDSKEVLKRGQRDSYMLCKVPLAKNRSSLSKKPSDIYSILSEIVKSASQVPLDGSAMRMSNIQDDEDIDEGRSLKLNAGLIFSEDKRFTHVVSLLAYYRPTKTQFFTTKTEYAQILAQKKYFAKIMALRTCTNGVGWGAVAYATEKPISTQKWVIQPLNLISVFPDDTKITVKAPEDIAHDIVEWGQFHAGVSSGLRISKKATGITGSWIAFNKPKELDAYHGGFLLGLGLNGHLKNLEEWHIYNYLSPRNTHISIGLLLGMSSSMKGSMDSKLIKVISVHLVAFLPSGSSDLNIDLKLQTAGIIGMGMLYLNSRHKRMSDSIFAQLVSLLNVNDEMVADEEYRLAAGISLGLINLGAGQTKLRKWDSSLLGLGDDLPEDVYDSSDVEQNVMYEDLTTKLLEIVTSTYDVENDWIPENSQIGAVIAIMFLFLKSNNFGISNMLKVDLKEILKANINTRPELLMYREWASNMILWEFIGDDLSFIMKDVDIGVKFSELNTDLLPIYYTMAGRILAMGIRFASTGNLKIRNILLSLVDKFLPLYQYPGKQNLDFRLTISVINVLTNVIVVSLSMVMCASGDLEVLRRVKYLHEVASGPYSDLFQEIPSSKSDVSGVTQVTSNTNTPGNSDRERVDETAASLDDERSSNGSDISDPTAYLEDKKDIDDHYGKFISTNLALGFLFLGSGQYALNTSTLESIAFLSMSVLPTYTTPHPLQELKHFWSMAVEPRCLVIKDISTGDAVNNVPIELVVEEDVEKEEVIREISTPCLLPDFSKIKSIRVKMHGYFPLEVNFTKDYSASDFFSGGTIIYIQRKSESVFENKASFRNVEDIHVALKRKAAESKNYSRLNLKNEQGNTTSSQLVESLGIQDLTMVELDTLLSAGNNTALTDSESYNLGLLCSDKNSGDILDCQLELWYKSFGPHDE

B1: in vitro translated Cdh1 (natural protein)
chain: MSTNLNPFMNNTPSSSPLKGSESKRVSKRPISSSSSASLLSSPSRRSRPSTVYGDRYIPSRTDIDFNSIVSISSMASVPALNPSSTEDQVEYQKERQAHETYNTLLKNELFGEMLSKDTVGSESSIDRIKNTRPSTRGNVHAENTTRHGYELERVSTPPPEAAGLEEFSPHSTPVTPRRLFTSQQDEITRPSSNSVRGASLLTYQQRKGRRLSAASLLQSQFFDSMSPVRPDSKQLLLSPGKQFRQIAKVPYRVLDAPSLADDFYYSLIDWSSTDVLAVALGKSIFLTDNNTGDVVHLCDTENEYTSLSWIGAGSHLAVGQANGLVEIYDVMKRKCIRTLSGHIDRVACLSWNNHVLTSGSRDHRILHRDVRMPDPFFETIESHTQEVCGLKWNVADNKLASGGNDNVVHVYEGTSKSPILTFDEHKAAVKAMAWSPHKRGVLATGGGTADRRLKIWNVNTSIKMSDIDSGSQICNMVWSKNTNELVTSHGYSKYNLTLWDCNSMDPIAILKGHSFRVLHLTLSNDGTTVVSGAGDETLRYWKLFDKPKAKVQPNSLIFDAFNQIR
modifications: 35S label
In the case of B1, the half-time of dissociation in assay [1] amounted to 22 min; in assay [2] it was 10 min; in assay [3], 20 min. In assay [2], this molecule registered a dissociation rate constant (koff) of 0.0011 s⁻¹.

(Values after paper PMC2754851.)
